Source: patent US20240317834A1, “COMPOSITIONS AND METHODS FOR NEUROLOGICAL DISEASES” (CODA BIOTHERAPEUTICS, INC., priority 2020, published 2024)
Changes are numbered by the printed parent chain. Names may count otherwise.

How the values were obtained:
[1] = tested on: Lenti-X 293T cells; assay: YFP fluorescence quenching anion reporter plate reader assay of engineered receptors stimulated with acetylcholine or a non-native ligand; format: cell-based; settings: for percent quench of YFP fluorescence, 30 nM TC-6683: TC-6683 30 nM; for percent quench of YFP fluorescence, 300 nM TC-6683: TC-6683 300 nM; for percent quench of YFP fluorescence, 3 uM TC-6683: TC-6683 3 uM; for percent quench of YFP fluorescence, 30 uM TC-6683: TC-6683 30 uM; for percent quench of YFP fluorescence, 100 uM TC-6683: TC-6683 100 uM; for percent quench of YFP fluorescence, 100 uM ach: acetylcholine 100 uM; for percent quench of YFP fluorescence, 300 uM ach: acetylcholine 300 uM; for percent quench of YFP fluorescence, 500 uM ach: acetylcholine 500 uM; for percent quench of YFP fluorescence, 1 mM ach: acetylcholine 1 mM; for percent quench of YFP fluorescence, 3 mM ach: acetylcholine 3 mM; for percent quench of YFP fluorescence, 10 mM ach: acetylcholine 10 mM
In short: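 YFP quench was followed for about 1 min 43 s after ligand delivered in iodide-based ECS, pH 7.2. Values are end-of-read fluorescence (last 10 s) divided by the pre-ligand baseline (15 s). Cells were LX293T, transfected with receptor DNA a day before the assay.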

[2] = tested on: rat DRG neurons; assay: Rheobase shift and evoked action potentials in rat DRG neurons (current clamp); format: cell-based; settings: for Rheobase Shift; Rat DRG Neurons, Baseline: no ligand
Procedure: Using whole cell manual patch clamp electrophysiology in HEK293 cells, rat DRG neurons and rat hippocampal neurons, the EC50 of the various engineered receptors disclosed herein to Ach and non-native ligands was measured using the Hill equation with peak current measurements from escalating doses of ligand. The rheobase shift was also measured in rat DRG neurons, which reflects the efficacy of the receptors. To calculate the rheobase, first, the amount of current that can produce an action potential was determined. Then the ligand was added, followed by a step wise increase in the current injected up to 700 pA.
For manual patch clamp experiments, Cells plated on coverslips were visualized at 10× and 40× on an inverted fluorescence microscope (Olympus). Recordings were made with an Axopatch 200B amplifier and Digidata 1550B (Molecular Devices) at RT using 3-6 MOhm glass patch electrodes (Sutter, BF150-86-10). Unless otherwise stated, recordings were made in extracellular solution (ECS) containing: 140 mM sodium chloride, 4 mM potassium chloride, 1 mM magnesium chloride, 2 mM calcium chloride, 10 mM HEPES, and 10 mM D-(+)-glucose (pH=7.3 with sodium hydroxide, osmolarity=305−315 mOsm). An 8-line reservoir (AutoMate Scientific) in combination with an 8-channel zero-dead-volume perfusion pencil (AutoMate Scientific) was used for perfusion. Data was acquired using pClamp software (Molecular Devices). Traces were either analyzed in Clampfit (Molecular Devices) or using custom Python code. Plotting and statistics were performed in GraphPad Prism.
DRG rheobase experiments were performed in current clamp mode using a potassium-based internal solution containing: 100 mM potassium D-gluconate, 28 mM potassium chloride, 1 mM magnesium chloride hexahydrate, 5 mM magnesium ATP, 10 mM HEPES, and 0.5 mM EGTA (pH=7.2 with potassium hydroxide, osmolarity=290-295 mOsm, calculated liquid junction potential=−13.5 mV). To measure DRG input resistance and rheobase, 500 ms current steps (−200 pA to 700 pA) were applied the membrane in the presence and absence of a compound. No holding current was applied to the membrane for cells included in the final datasets. Data were acquired at 10 kHz, with Bessel filter at 2 kHz and series resistance compensation at 100%. Rheobase was defined as the smallest depolarizing current injection required to cause an action potential to fire in the cell. In a subset of cells, the rheobase was ambiguous, since the action potential appeared to be graded in amplitude. In these cases, a […] of the trace clarified the rheobase. Input resistance was measured from the negative current injections, calculated as the difference in membrane potential at steady state divided by the current injection amplitude and then averaged across the four negative current steps for each recording. Resting membrane potential was measured from the first 100 ms of each sweep, averaged for each recording, and corrected for liquid junction potential. One-way ANOVA with multiple comparisons was used to test for significance of difference in rheobase and input resistance between baseline, drug, and wash conditions.

B1: CODA1048: engineered chimeric LGIC receptor, R101F, Y210F in SEQ ID NO: 33 (protein)
chain: MRCSPGGVWLALAASLLHVSLQGEFQRKLYKELVKNYNPLERPVANDSQPLTVYFSLSLLQIMDVDEKNQVLTTNIWLQMSWTDHYLQWNVSEYPGVKTVFFPDGQIWKPDILLYNSADERFDATFHTNVLVNSSGHCQYLPPGIFKSSCPMDLKNFPMDVQTCKLKFGSWSYGGWSLDLQMQEADISGYIPNGEWDLVGIPGKRSERFFECCKEPYPDVTFTVTMRRRMGYYLIQMYIPSLLIVILSWISFWINMDAAPARVGLGITTVLTMTTQSSGSRASLPKVSYVKAIDIWMAVCLLFVFSALLEYAAVNFVSRQHKELLRFRRKRRHHKSPMLNLFQEDEAGEGRFNFSAYGMGPACLQAKDGISVKGANNSNTTNPPPAPSKSPEEMRKLFIQRAKKIDKISRIGFPMAFLIFNMFYWIIYKIVRREDVHNQ
modifications: synthetic sequence of chimeric LGIC
YFP fluorescence quenching using CNL001 ([1]; 1 nM CNL001, first column): 9.114% | YFP fluorescence quenching using CNL001 ([1]; 1 nM CNL001, second column): 0.845% | YFP fluorescence quenching using TC-5619/Bradanicline ([1]; 1 nM brd): −2.084% | YFP fluorescence quenching using TC-5619/Bradanicline ([1]; 3 nM brd): −9.098% | YFP fluorescence quenching using Varenicline ([1]; 3 nM var, first column): −17.119 | YFP fluorescence quenching using Varenicline ([1]; 3 nM var, second column): −13.234 | YFP fluorescence quenching using CNL001 ([1]; 10 nM CNL001, first column): 28.944% | YFP fluorescence quenching using CNL001 ([1]; 10 nM CNL001, second column): 53.629% | YFP fluorescence quenching using TC-5619/Bradanicline ([1]; 10 nM brd): −2.587% | YFP fluorescence quenching using TC-5619/Bradanicline ([1]; 30 nM brd): 55.818% | YFP fluorescence quenching using Varenicline ([1]; 30 nM var, first column): −7.747 | YFP fluorescence quenching using Varenicline ([1]; 30 nM var, second column): 4.193 | YFP fluorescence quenching using CNL001 ([1]; 50 nM CNL001, first column): 68.581% | YFP fluorescence quenching using CNL001 ([1]; 50 nM CNL001, second column): 74.379% | YFP fluorescence quenching using ABT-126 ([1]; 50 nM abt): −23.28% | YFP fluorescence quenching using CNL001 ([1]; 100 nM CNL001, first column): 80.541% | YFP fluorescence quenching using CNL001 ([1]; 100 nM CNL001, second column): 80.774% | YFP fluorescence quenching using ABT-126 ([1]; 100 nM abt): −21.78% | YFP fluorescence quenching using TC-5619/Bradanicline ([1]; 100 nM brd): 76.957% | YFP fluorescence quenching using ABT-126 ([1]; 300 nM abt): −19.35% | YFP fluorescence quenching using TC-5619/Bradanicline ([1]; 300 nM brd): 74.268% | YFP fluorescence quenching using Varenicline ([1]; 300 nM var, first column): 4.149 | YFP fluorescence quenching using Varenicline ([1]; 300 nM var, second column): 1.512 | YFP fluorescence quenching using Varenicline ([1]; 500 nM var, first column): −1.572 | YFP fluorescence quenching using Varenicline ([1]; 500 nM var, second column): 3.71 | YFP fluorescence quenching using CNL001 ([1]; 1 uM CNL001, first column): 83.143% | YFP fluorescence quenching using CNL001 ([1]; 1 uM CNL001, second column): 81.751% | YFP fluorescence quenching using ABT-126 ([1]; 1 uM abt): −16.33% | YFP fluorescence quenching using Varenicline ([1]; 1 uM var, first column): 8.414 | YFP fluorescence quenching using Varenicline ([1]; 1 uM var, second column): 4.091 | percent quench of YFP fluorescence, 30 nM TC-6683 [1]: −29.055% | percent quench of YFP fluorescence, 300 nM TC-6683 [1]: −33.935% | percent quench of YFP fluorescence, 3 uM TC-6683 [1]: −24.613% | percent quench of YFP fluorescence, 30 uM TC-6683 [1]: −21.752% | percent quench of YFP fluorescence, 100 uM TC-6683 [1]: −22.815% | percent quench of YFP fluorescence, 100 uM ach [1]: −17.31% | percent quench of YFP fluorescence, 300 uM ach [1]: −13.7% | percent quench of YFP fluorescence, 500 uM ach [1]: −10.1% | percent quench of YFP fluorescence, 1 mM ach [1]: 5.53% | percent quench of YFP fluorescence, 3 mM ach [1]: 68.61% | percent quench of YFP fluorescence, 10 mM ach [1]: 78.22% | Rheobase Shift; Rat DRG Neurons, +TC-5619 @ EC90 [2]: 590 ± 46 pA | Rheobase Shift; Rat DRG Neurons, Baseline [2]: 120 ± 19 pA

B2: CODA1054: engineered chimeric LGIC receptor, R101M, L131F in SEQ ID NO: 33 (protein)
chain: B1 chain with F101M, L131F, F210Y
modifications: synthetic sequence of chimeric LGIC
YFP fluorescence quenching using CNL001 ([1]; 1 nM CNL001, first column): 21.932% | YFP fluorescence quenching using CNL001 ([1]; 1 nM CNL001, second column): 39.689% | YFP fluorescence quenching using TC-5619/Bradanicline ([1]; 1 nM brd): 6.609% | YFP fluorescence quenching using TC-5619/Bradanicline ([1]; 3 nM brd): −7.635% | YFP fluorescence quenching using Varenicline ([1]; 3 nM var, first column): 34.923 | YFP fluorescence quenching using Varenicline ([1]; 3 nM var, second column): 28.944 | YFP fluorescence quenching using CNL001 ([1]; 10 nM CNL001, first column): 54.192% | YFP fluorescence quenching using CNL001 ([1]; 10 nM CNL001, second column): 64.111% | YFP fluorescence quenching using TC-5619/Bradanicline ([1]; 10 nM brd): 4.459% | YFP fluorescence quenching using TC-5619/Bradanicline ([1]; 30 nM brd): 69.782% | YFP fluorescence quenching using Varenicline ([1]; 30 nM var, first column): 42.214 | YFP fluorescence quenching using Varenicline ([1]; 30 nM var, second column): 43.015 | YFP fluorescence quenching using CNL001 ([1]; 50 nM CNL001, first column): 71.409% | YFP fluorescence quenching using CNL001 ([1]; 50 nM CNL001, second column): 70.989% | YFP fluorescence quenching using ABT-126 ([1]; 50 nM abt): −19.54% | YFP fluorescence quenching using CNL001 ([1]; 100 nM CNL001, first column): 74.148% | YFP fluorescence quenching using CNL001 ([1]; 100 nM CNL001, second column): 71.722% | YFP fluorescence quenching using ABT-126 ([1]; 100 nM abt): −18.28% | YFP fluorescence quenching using TC-5619/Bradanicline ([1]; 100 nM brd): 77.633% | YFP fluorescence quenching using ABT-126 ([1]; 300 nM abt): −16.87% | YFP fluorescence quenching using TC-5619/Bradanicline ([1]; 300 nM brd): 72.933% | YFP fluorescence quenching using Varenicline ([1]; 300 nM var, first column): 47.059 | YFP fluorescence quenching using Varenicline ([1]; 300 nM var, second column): 52.768 | YFP fluorescence quenching using Varenicline ([1]; 500 nM var, first column): 59.542 | YFP fluorescence quenching using Varenicline ([1]; 500 nM var, second column): 62.641 | YFP fluorescence quenching using CNL001 ([1]; 1 uM CNL001, first column): 71.378% | YFP fluorescence quenching using CNL001 ([1]; 1 uM CNL001, second column): 71.411% | YFP fluorescence quenching using ABT-126 ([1]; 1 uM abt): −11.77% | YFP fluorescence quenching using Varenicline ([1]; 1 uM var, first column): 71.449 | YFP fluorescence quenching using Varenicline ([1]; 1 uM var, second column): 69.145 | percent quench of YFP fluorescence, 30 nM TC-6683 [1]: −22.996% | percent quench of YFP fluorescence, 300 nM TC-6683 [1]: −27.055% | percent quench of YFP fluorescence, 3 uM TC-6683 [1]: −18.611% | percent quench of YFP fluorescence, 30 uM TC-6683 [1]: −13.879% | percent quench of YFP fluorescence, 100 uM TC-6683 [1]: −21.521% | percent quench of YFP fluorescence, 10 uM ach ([1]; acetylcholine 10 uM): −3.98% | percent quench of YFP fluorescence, 100 uM ach [1]: −10.34% | percent quench of YFP fluorescence, 300 uM ach [1]: −10.25% | percent quench of YFP fluorescence, 500 uM ach [1]: −11.46% | percent quench of YFP fluorescence, 1 mM ach [1]: 1.77% | percent quench of YFP fluorescence, 3 mM ach [1]: 36.81% | percent quench of YFP fluorescence, 10 mM ach [1]: 74.02% | Rheobase Shift; Rat DRG Neurons, +TC-5619 @ EC90 [2]: 673 ± 27 pA | Rheobase Shift; Rat DRG Neurons, Baseline [2]: 105 ± 13 pA
